T1: MPP2, Q14168
T1 sequence (Q14168 180-250, limits assumed, looked up): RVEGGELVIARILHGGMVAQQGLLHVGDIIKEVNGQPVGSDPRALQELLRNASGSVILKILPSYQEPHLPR

T2: APBA2_2, Q99767
T2 sequence (Q99767 654-744, limits assumed, looked up): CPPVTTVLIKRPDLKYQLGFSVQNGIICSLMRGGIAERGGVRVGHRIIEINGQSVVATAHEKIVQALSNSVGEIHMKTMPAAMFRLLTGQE

T3: ARHGAP21, Q5T5U3
T3 sequence (Q5T5U3 45-169, limits assumed, looked up): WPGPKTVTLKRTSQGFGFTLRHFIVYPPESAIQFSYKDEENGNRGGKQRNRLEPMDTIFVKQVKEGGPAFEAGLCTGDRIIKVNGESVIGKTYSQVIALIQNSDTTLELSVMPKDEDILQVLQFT

T4: APBA1_2, Q02410
T4 sequence (Q02410 742-832, limits assumed, looked up): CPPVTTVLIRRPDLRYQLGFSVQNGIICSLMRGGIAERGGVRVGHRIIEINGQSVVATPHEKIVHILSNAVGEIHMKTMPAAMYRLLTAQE

T5: NHERF3_1, Q5T2W1
T5 sequence (Q5T2W1 4-100, limits assumed, looked up): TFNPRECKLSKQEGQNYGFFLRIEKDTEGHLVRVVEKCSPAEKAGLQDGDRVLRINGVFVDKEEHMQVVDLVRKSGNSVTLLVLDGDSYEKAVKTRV

T6: PDZRN3_1, Q9UPQ7
T6 sequence (Q9UPQ7 244-349, limits assumed, looked up): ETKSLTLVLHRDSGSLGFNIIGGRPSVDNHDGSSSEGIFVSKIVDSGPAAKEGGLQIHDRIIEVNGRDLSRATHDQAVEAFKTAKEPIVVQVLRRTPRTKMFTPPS

T7: PCLO, Q9Y6V0
T7 sequence (Q9Y6V0 4491-4600, limits assumed, looked up): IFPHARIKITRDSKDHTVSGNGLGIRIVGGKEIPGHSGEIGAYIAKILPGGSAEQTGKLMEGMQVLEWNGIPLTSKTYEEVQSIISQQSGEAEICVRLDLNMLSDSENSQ

T8: SNTG1, Q9NSN8
T8 sequence (Q9NSN8 52-150, limits assumed, looked up): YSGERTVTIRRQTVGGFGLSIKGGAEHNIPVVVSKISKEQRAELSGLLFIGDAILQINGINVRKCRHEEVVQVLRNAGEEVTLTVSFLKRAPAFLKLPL

T9: MPP7, Q5T2T1
T9 sequence (Q5T2T1 134-230, limits assumed, looked up): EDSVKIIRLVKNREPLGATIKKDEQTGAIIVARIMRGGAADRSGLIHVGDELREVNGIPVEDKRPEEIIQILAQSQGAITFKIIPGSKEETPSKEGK

T10: LNX2_3, Q8N448
T10 sequence (Q8N448 463-564, limits assumed, looked up): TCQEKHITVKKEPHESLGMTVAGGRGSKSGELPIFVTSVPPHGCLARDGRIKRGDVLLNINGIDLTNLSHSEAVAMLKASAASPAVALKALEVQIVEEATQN


Experiments:
Test in all cases: holdup assay
Set-up in all cases: key: below the threshold = too weak to quantify, mostly under pKd 3.1 to 4
Details in all cases: plain residues with an end cap or a label only (N-terminal biotin on a linker: ado-ado)
[1] = target: T1, MPP2, Q14168
[2] = target: GRIP2_5, Q9C0E4
Sequence of GRIP2_5, Q9C0E4 (Q9C0E4 544-642): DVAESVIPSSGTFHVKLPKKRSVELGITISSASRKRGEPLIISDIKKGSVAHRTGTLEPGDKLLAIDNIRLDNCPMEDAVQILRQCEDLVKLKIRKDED

[3] = target: Inadl_10, Q8NI35
Sequence of Inadl_10, Q8NI35 (Q8NI35 1673-1763): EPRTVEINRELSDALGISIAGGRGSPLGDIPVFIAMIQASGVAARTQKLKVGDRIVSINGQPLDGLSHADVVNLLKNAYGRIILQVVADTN

[4] = target: T2, APBA2_2, Q99767
[5] = target: T3, ARHGAP21, Q5T5U3
[6] = target: MAGI2_4, Q86UL8
Sequence of MAGI2_4, Q86UL8 (Q86UL8 772-865): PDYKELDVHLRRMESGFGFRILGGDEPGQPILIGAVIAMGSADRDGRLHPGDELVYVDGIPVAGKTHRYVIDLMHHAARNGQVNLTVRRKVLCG

[7] = target: SCRIB_3, Q14160
Sequence of SCRIB_3, Q14160 (Q14160 999-1103): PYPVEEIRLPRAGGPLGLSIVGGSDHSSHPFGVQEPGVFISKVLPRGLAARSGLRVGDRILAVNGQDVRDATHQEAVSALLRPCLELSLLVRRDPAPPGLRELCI

[8] = target: GRID2IP_2, A4D2P6
Sequence of GRID2IP_2, A4D2P6 (A4D2P6 272-370): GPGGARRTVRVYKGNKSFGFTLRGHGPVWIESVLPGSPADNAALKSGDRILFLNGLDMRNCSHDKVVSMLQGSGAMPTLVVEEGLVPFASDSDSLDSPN

[9] = target: IL16_3, Q14005
Sequence of IL16_3, Q14005 (Q14005 1107-1207): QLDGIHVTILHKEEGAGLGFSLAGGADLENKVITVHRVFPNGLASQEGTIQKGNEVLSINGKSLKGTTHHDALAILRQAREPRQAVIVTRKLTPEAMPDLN

[10] = target: GRIP2_4, Q9C0E4
Sequence of GRIP2_4, Q9C0E4 (Q9C0E4 446-548): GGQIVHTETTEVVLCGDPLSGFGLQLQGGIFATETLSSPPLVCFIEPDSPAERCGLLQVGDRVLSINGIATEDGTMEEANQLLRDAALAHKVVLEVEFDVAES

[11] = target: GRIP2_3, Q9C0E4
Sequence of GRIP2_3, Q9C0E4 (Q9C0E4 238-339): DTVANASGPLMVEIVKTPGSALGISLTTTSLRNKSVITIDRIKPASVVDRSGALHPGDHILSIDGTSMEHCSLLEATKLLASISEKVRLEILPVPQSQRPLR

[12] = target: MAGI2_5, Q86UL8
Sequence of MAGI2_5, Q86UL8 (Q86UL8 915-1017): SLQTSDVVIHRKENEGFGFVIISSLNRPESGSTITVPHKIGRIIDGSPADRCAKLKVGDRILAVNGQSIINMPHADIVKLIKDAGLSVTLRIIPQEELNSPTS

[13] = target: FRMPD4, Q14CM0
Sequence of FRMPD4, Q14CM0 (Q14CM0 67-160): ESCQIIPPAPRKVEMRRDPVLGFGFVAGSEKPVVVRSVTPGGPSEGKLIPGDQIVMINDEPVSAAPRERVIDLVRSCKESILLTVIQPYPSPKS

[14] = target: T4, APBA1_2, Q02410
[15] = target: LNX1_3, Q8TBB1
Sequence of LNX1_3, Q8TBB1 (Q8TBB1 500-596): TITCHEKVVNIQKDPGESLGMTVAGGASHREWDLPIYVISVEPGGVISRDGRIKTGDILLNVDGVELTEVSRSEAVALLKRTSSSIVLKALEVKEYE

[16] = target: T5, NHERF3_1, Q5T2W1
[17] = target: T6, PDZRN3_1, Q9UPQ7
[18] = target: T7, PCLO, Q9Y6V0
[19] = target: T8, SNTG1, Q9NSN8
[20] = target: TJP1_3, Q07157
Sequence of TJP1_3, Q07157 (Q07157 416-512): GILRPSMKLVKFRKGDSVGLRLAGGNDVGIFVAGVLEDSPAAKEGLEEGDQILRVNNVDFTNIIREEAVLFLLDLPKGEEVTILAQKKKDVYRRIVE

[21] = target: DLG4_2, P78352
Sequence of DLG4_2, P78352 (P78352 155-259): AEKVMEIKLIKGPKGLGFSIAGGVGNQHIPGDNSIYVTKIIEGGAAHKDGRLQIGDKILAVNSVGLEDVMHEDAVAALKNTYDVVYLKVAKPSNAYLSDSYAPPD

[22] = target: T9, MPP7, Q5T2T1
[23] = target: GRIP2_6, Q9C0E4
Sequence of GRIP2_6, Q9C0E4 (Q9C0E4 648-740): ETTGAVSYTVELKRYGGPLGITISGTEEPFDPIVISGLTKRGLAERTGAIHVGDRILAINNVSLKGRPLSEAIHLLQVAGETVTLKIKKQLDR

[24] = target: LNX1_1, Q8TBB1
Sequence of LNX1_1, Q8TBB1 (Q8TBB1 261-371): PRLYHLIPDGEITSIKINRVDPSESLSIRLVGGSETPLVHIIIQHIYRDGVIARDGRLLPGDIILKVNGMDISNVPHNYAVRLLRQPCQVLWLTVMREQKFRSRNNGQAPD

[25] = target: PTPN3, P26045
Sequence of PTPN3, P26045 (P26045 505-587): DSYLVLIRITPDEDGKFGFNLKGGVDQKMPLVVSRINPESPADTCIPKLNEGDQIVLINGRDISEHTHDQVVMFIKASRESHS

[26] = target: IL16_1, Q14005
Sequence of IL16_1, Q14005 (Q14005 210-306): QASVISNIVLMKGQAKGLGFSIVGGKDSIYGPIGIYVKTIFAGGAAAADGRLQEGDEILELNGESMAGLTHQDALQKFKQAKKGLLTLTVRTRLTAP

[27] = target: DLG1_1, Q12959
[28] = target: T10, LNX2_3, Q8N448

| Binder | pKd [1] | pKd [2] | pKd [3] | pKd [4] | pKd [5] | pKd [6] | pKd [7] | pKd [8] | pKd [9] | pKd [10] | pKd [11] | pKd [12] | pKd [13] | pKd [14] | pKd [15] | pKd [16] | pKd [17] | pKd [18] | pKd [19] | pKd [20] | other results |
| --- | --- | --- | --- | --- | --- | --- | --- | --- | --- | --- | --- | --- | --- | --- | --- | --- | --- | --- | --- | --- | --- |
| NVYGIESVKI [GRIA2, P42262] | below the threshold | below the threshold | below the threshold | 3.6 | below the threshold | below the threshold | 3.56 | below the threshold | below the threshold | below the threshold | below the threshold | below the threshold | below the threshold | 3.68 | below the threshold | below the threshold | below the threshold | below the threshold | 3.65 | 3.62 | pKd [21]: 3.73; pKd [22]: below the threshold; pKd [23]: 3.64; pKd [24]: 4.07; pKd [25]: below the threshold; pKd [26]: below the threshold; pKd [27]: below the threshold; pKd [28]: below the threshold |
| DFLSTFHIRI [CIB2, O75838] | below the threshold | below the threshold | below the threshold | below the threshold | 4.13 | below the threshold | 3.56 | below the threshold | below the threshold | below the threshold | below the threshold | below the threshold | below the threshold | below the threshold | 4.28 | below the threshold | below the threshold | below the threshold | below the threshold | below the threshold | pKd [21]: below the threshold; pKd [22]: 4.46; pKd [23]: 4.58; pKd [24]: below the threshold; pKd [25]: below the threshold; pKd [26]: below the threshold; pKd [27]: below the threshold; pKd [28]: below the threshold |
| TISFTQTSQF [SLC1A1, P43005] | below the threshold | below the threshold | below the threshold | below the threshold | below the threshold | 3.58 | 3.72 | below the threshold | below the threshold | below the threshold | below the threshold | 4.29 | below the threshold | below the threshold | below the threshold | 4.73 | below the threshold | below the threshold | below the threshold | below the threshold | pKd [21]: below the threshold; pKd [22]: below the threshold; pKd [23]: below the threshold; pKd [24]: below the threshold; pKd [25]: 4.09; pKd [26]: below the threshold; pKd [27]: below the threshold; pKd [28]: below the threshold |
| PSHPRLQTHV [KIRREL2, Q6UWL6] | below the threshold | below the threshold | below the threshold | below the threshold | below the threshold | 3.62 | 4.26 | 4.08 | below the threshold | below the threshold | below the threshold | 3.58 | below the threshold | 3.74 | below the threshold | 4.57 | below the threshold | below the threshold | below the threshold | below the threshold | pKd [21]: 4.48; pKd [22]: below the threshold; pKd [23]: below the threshold; pKd [24]: below the threshold; pKd [25]: 4.13; pKd [26]: below the threshold; pKd [27]: 4.24; pKd [28]: below the threshold |

— PMC9482650, “Quantitative fragmentomics allow affinity mapping of interactomes” (Nature Communications, 2022)
